Measured values from paper PMC8177707.
Like-named read-outs stand apart in the source and are kept apart here.

Columns and labels:
Assay in all cases: cryo-EM structure
[1] = biological target: full-length wild-type calcium-sensing receptor from Gallus gallus (ggCaSR) (Gallus gallus)
[2] = biological target: full-length wild-type calcium-sensing receptor from Gallus gallus (ggCaSR) (Gallus gallus); remark: listed apart in the source
[3] = biological target: full-length wild-type calcium-sensing receptor from Gallus gallus (ggCaSR) (Gallus gallus); remark: listed apart in the source
[4] = biological target: full-length wild-type calcium-sensing receptor from Gallus gallus (ggCaSR) (Gallus gallus); remark: listed apart in the source

stoichiometry N [1]: 2 | stoichiometry N [2]: 2 | stoichiometry N [3]: 2 | stoichiometry N [4]: 2
Substance: full-length wild-type calcium-sensing receptor from Gallus gallus (ggCaSR)
